Data published in paper PMC2174365 (The Journal of Cell Biology, 2000).

Columns and labels:
[1] = molecular target: microtubules (taxol-stabilized; polymer of alpha- and beta-tubulin); experiment: cell-based or functional assay
cross-linking = molecular target: the molecule itself; experiment: cross-linking

Binder | Km(MT) of the microtubule-stimulated ATPase, with 200 μM DTNB [1] [μM tubulin] | Km(MT) of the microtubule-stimulated ATPase, without DTNB [1] [μM tubulin] | stoichiometry N (cross-linking)
Cys344 Cys-light K560-GFP (neck coiled-coil mutant Tyr344Cys) (domain or fragment, human, UniProt P33176 1-560, looked up) MADLAESNIKVMCRFRPLNESEVNRGDKYIAKFQGEDTVVIASKPYAFDRVFQSSTSQEQVYNDAAKKIVKDVLEGYNGTIFAYGQTSSGKTHTMEGKLHDPEGMGIIPRIVQDIFNYIYSMDENLEFHIKVSYFEIYLDKIRDLLDVSKTNLSVHEDKNRVPYVKGATERFVSSPDEVMDTIDEGKSNRHVAVTNMNEHSSRSHSIFLINVKQENTQTEQKLSGKLYLVDLAGSEKVSKTGAEGAVLDEAKNINKSLSALGNVISALAEGSTYVPYRDSKMTRILQDSLGGNARTTIVICCSPSSYNESETKSTLLFGQRAKTIKNTVSVNVELTAEQWKKKCEKEKEKNKILRNTIQWLENELNRWRNGETVPIDEQFDKEKANLEAFTVDKDITLTNDKPATAIGVIGNFTDAERRKAEEEIAKLYKQLDDKDEEINQQSQLVEKLKTQMLDQEELLASTRRDQDNMQAELNRLQAENDASKEEVKEVLQALEELAVNYDQKSQEVEDKTKEYELLSDELNQKSATLASIDAELQKLKEMTNHQKKRAAEMMASLLK | 1.24 | 0.84 | 2
Cys337/Cys344 Cys-light K560-GFP (neck coiled-coil double mutant Ala337Cys/Tyr344Cys) (domain or fragment, human, UniProt P33176 1-560, looked up) MADLAESNIKVMCRFRPLNESEVNRGDKYIAKFQGEDTVVIASKPYAFDRVFQSSTSQEQVYNDAAKKIVKDVLEGYNGTIFAYGQTSSGKTHTMEGKLHDPEGMGIIPRIVQDIFNYIYSMDENLEFHIKVSYFEIYLDKIRDLLDVSKTNLSVHEDKNRVPYVKGATERFVSSPDEVMDTIDEGKSNRHVAVTNMNEHSSRSHSIFLINVKQENTQTEQKLSGKLYLVDLAGSEKVSKTGAEGAVLDEAKNINKSLSALGNVISALAEGSTYVPYRDSKMTRILQDSLGGNARTTIVICCSPSSYNESETKSTLLFGQRAKTIKNTVSVNVELTCEQWKKKCEKEKEKNKILRNTIQWLENELNRWRNGETVPIDEQFDKEKANLEAFTVDKDITLTNDKPATAIGVIGNFTDAERRKAEEEIAKLYKQLDDKDEEINQQSQLVEKLKTQMLDQEELLASTRRDQDNMQAELNRLQAENDASKEEVKEVLQALEELAVNYDQKSQEVEDKTKEYELLSDELNQKSATLASIDAELQKLKEMTNHQKKRAAEMMASLLK | 1.51 | 1.19 | 
Cys337 Cys-light K560-GFP (neck coiled-coil mutant Ala337Cys) (domain or fragment, human, UniProt P33176 1-560, looked up) MADLAESNIKVMCRFRPLNESEVNRGDKYIAKFQGEDTVVIASKPYAFDRVFQSSTSQEQVYNDAAKKIVKDVLEGYNGTIFAYGQTSSGKTHTMEGKLHDPEGMGIIPRIVQDIFNYIYSMDENLEFHIKVSYFEIYLDKIRDLLDVSKTNLSVHEDKNRVPYVKGATERFVSSPDEVMDTIDEGKSNRHVAVTNMNEHSSRSHSIFLINVKQENTQTEQKLSGKLYLVDLAGSEKVSKTGAEGAVLDEAKNINKSLSALGNVISALAEGSTYVPYRDSKMTRILQDSLGGNARTTIVICCSPSSYNESETKSTLLFGQRAKTIKNTVSVNVELTCEQWKKKYEKEKEKNKILRNTIQWLENELNRWRNGETVPIDEQFDKEKANLEAFTVDKDITLTNDKPATAIGVIGNFTDAERRKAEEEIAKLYKQLDDKDEEINQQSQLVEKLKTQMLDQEELLASTRRDQDNMQAELNRLQAENDASKEEVKEVLQALEELAVNYDQKSQEVEDKTKEYELLSDELNQKSATLASIDAELQKLKEMTNHQKKRAAEMMASLLK | 1.59 | 1.2 | 2
